From patent US20210214435A1 (MorphoSys, published 2021)

B1: Fab #2 comprising a modified heavy chain constant region (Fab, V domains shown)
VH: QVQLVESGGGLVKPGGSLRLSCAASGFSFSDHYMSWIRQAPGKGLEWVSSVGSEGKFIDYAASVKGRFTISRDNAKNSLYLQMNSLRAEDTAVYYCARHYREFRWHYYYFDYWGQGTLVTVSS
VL: QSVLTQPPSVSGAPGQRVTISCTGSSSNIGAGYDVHWYQQLPGTAPKLLIYGNSNRPSGVPDRFSGSKSGTSASLAITGLQAEDEADYYCQSHDLGAHVWVFGGGTKLTVLG
notes: Human Fab from the Ylanthia library; produced in HKB11 cells; also called Fab #2 mod; HC
B2: Fab #3 comprising a modified heavy chain constant region (Fab, V domains shown)
VH: QVQLVESGGGLVKPGGSLRLSCAASGFSFGDYYVSWIRQAPGKGLEWVSAIGGSGSAVQYAESVKGRFTISRDNAKNSLYLQMNSLRAEDTAVYYCARHYREFRWHYYYFDYWGQGTLVTVSS
VL: QSVLTQPPSVSGAPGQRVTISCTGSSSNIGAGYDVHWYQQLPGTAPKLLIYGNSNRPSGVPDRFSGSKSGTSASLAITGLQAEDEADYYCQSHDLGAHVWVFGGGTKLTVLG
notes: Human Fab from the Ylanthia library; produced in HKB11 cells; also called Fab #3 mod; HC
B3: Fab #4 comprising a modified heavy chain constant region (Fab, V domains shown)
VH: QVQLVQSGAEVKKPGASVKVSCKASGGAFTSSYMHWVRQAPGQGLEWMGIIEPTGASTLYAQRFQGRVTMTRDTSTSTVYMELSSLRSEDTAVYYCARTGIALPLGFDLWGQGTLVTVSS
VL: QSVLTQPPSVSAAPGQKVTISCSGSSSNIGNNYVSWYQQLPGTAPKLLIYDNNKRPSGIPDRFSGSKSGTSATLGITGLQTEDEADYYCAAWSTRFRWVFGGGTKLTVLG
notes: Human Fab from the Ylanthia library; produced in HKB11 cells; also called Fab #4 mod; HC
B4: Reference Control Antibody RefFab #1 (humanized GPVI antibody of WO2011073954A2, SANOFI) (Fab, V domains shown)
VH: EVQLLESGPGLVAPSGSLSITCTVSGFSLTGYGVNWVRQPPGKGLEWLGMIWGDGSTDYQSTLKSRLSISKDNSKSQVFLKMNSLRTDDTARYYCARDLPMDYWGLGTSVTVSS
VL: DIQMTQSPSSLSASVGGRVTITCKASQDINKYIAWYQHKPGKGPSLLIHYTSTLQPGVPSRFSGSGSGRDYSFSISNLQPEDIATYYCLQYANLLTFGGGTKLEIKR
notes: Cloned into mammalian Fab expression vectors; a glycine-serine linker (G4S)2 was added to the C-terminus of the Fab heavy chain
B5: Fab #1 comprising a modified heavy chain constant region (Fab, V domains shown)
VH: QVQLVQSGAEVKKPGASVKVSCKASGYTFTSHYMHWVRQAPGQGLEWMGLIEPSEGETEYAQRFQGRVTMTRDTSTSTVYMELSSLRSEDTAVYYCARDSSRSYPLGFDIWGQGTLVTVSS
VL: QSVLTQPPSVSAAPGQKVTISCSGSSSNIGNNYVSWYQQLPGTAPKLLIYDNNKRPSGIPDRFSGSKSGTSATLGITGLQTEDEADYYCAAWDFRSSRWVFGGGTKLTVLG
notes: Human Fab from the Ylanthia library; produced in HKB11 cells; also called Fab #1 mod; HC

Assays:
[1] = target: T1, mouse GPVI extracellular domain fused at its C-terminus to human IgG1 Fc (GPVI-Fc) (mouse; human); test: Competition ELISA (MSD): mouse GPVI-Fc preincubated with Fab, then on coated CRP-XL (competitor)
T1 construct: also called mGPVI; mouse GPVI-Fc
Description: (§1) 1 or 10 μg/ml of recombinant GPVI collagen substrate (crosslinked collagen-related peptide (CRP-XL (Anaspec, Inc.), rat-tail collagen (Enzo Life Sciences) or VitroCol (Advanced BioMatrix, Inc.) was coated on a MSD-plate over night at 4° C., washed with PBST, blocked for 1 h at RT with PBS supplemented with 0.05% Tween-20 and 3% skim milk powder, and subsequently washed again with PBST. Purified recombinant GPVI antigens (human, cynomolgus monkey or mouse GPVI as prepared in Example 1) diluted in PBS and varying concentrations of Fab (comprising a modified heavy chain constant region) diluted in PBS (final concentration range 200-0.3 μg/ml) were incubated in a polypropylene plate for 30 min at RT. Fab/GPVI-Fc mixture was added to coated collagen substrate for 1 h at RT. After washing with PBST, bound GPVI form different species was detected using an ECL-conjugated detection antibody directed against human Fc (Jackson Immuno Research) for 1 h at RT. MSD read buffer (Meso Scale Discovery) was added prior to readout in a Sector Imager6000 (Meso Scale Discovery).

[2] = target: T2, cynomolgus monkey GPVI on the cell surface of cynomolgus monkey platelets (cynomolgus monkey); test: FACS on washed cynomolgus platelets from PRP (one donor), PE-conjugated detection antibody, median fluorescence
T2 construct: whole, on cells; also called GPVI on cynomolgus monkey platelets
Description: Platelet-rich plasma (PRP) from up to 4 donors was prepared by centrifugation of citrated whole blood for 15 min at 150×g without brake. The resulting supernatant was transferred as PRP into a new sample tube without disturbing the underlying leukocyte-rich interphase. After careful washing in Tyrode's buffer supplemented with Prostacyclin 1₂ (PGI2; Epoprostenol-Rotexmedica), platelets were resuspended in Tyrode's/PGI2 and transferred to 96 well V-bottom microtiter plates. Platelets were spiked with Fab (comprising a modified heavy chain constant region) diluted to final concentrations between 0.015-30 μg/ml in Tyrode's/PGI2 and incubated for 30 min at RT. Platelets were carefully washed to remove non-bound Fab and then incubated for 30 min at RT with a Phycoerythrine (PE)-conjugated detection antibody (Jackson ImmunoResearch). After incubation for 30 min at RT, platelets were analyzed by flow cytometry in a FACS Canto II (Becton Dickinson). In the case of Fab directly conjugated with PE (FIG. 1D), incubation with detection antibody was omitted. Data was evaluated using FACS Diva software (Becton Dickinson). EC50 values were calculated using Prism 5 software (GraphPad).

[3] = target: T1, mouse GPVI extracellular domain fused …; test: Competition ELISA (MSD): mouse GPVI-Fc preincubated with Fab, then on coated rat-tail collagen (competitor)
Description: as §1

[4] = target: T3, cynomolgus monkey GPVI extracellular domain fused at its C-terminus to human IgG1 Fc (GPVI-Fc) (cynomolgus monkey; human); test: Competition ELISA (MSD): cynomolgus GPVI-Fc preincubated with Fab, then on coated rat-tail collagen (competitor)
T3 construct: also called cyGPVI-2; cyGPVI
Description: as §1

[5] = target: T1, mouse GPVI extracellular domain fused …; test: ELISA, coated GPVI-Fc, Fab titrated
Description: (§2) 0.5-2 nM of recombinant GPVI-Fc-fusion proteins (as described in Example 1) were coated overnight on Maxisorp microtiter plates at 4° C. […] Following washing with PBST, Fabs (comprising a modified heavy chain constant region) serially diluted to concentrations in the range of 600 nM to 1 pM in PBST with 5% skim milk powder (MPBST) were added for 1 h at RT. Plates were washed with PBST. Bound Fab was detected using an alkaline phosphatase-conjugated detection antibody (Jackson Immuno Research) diluted in MPBST and directed against human F(ab′)2 fragment. After washing with TBS supplemented with 0.05% Tween-20 (TBST), AttoPhos substrate (Roche) diluted in ddH2O was added and fluorescence intensity measured at a Tecan Infinite 200Pro reader. EC50 values were calculated using Prism 5 software (GraphPad).

[6] = target: T4, rat GPVI extracellular domain fused at its C-terminus to human IgG1 Fc (GPVI-Fc) (rat; human); test: ELISA, coated GPVI-Fc, Fab titrated
T4 construct: also called rGPVI
Description: as §2

[7] = target: T3, cynomolgus monkey GPVI extracellular …; test: ELISA, coated GPVI-Fc, Fab titrated
Description: as §2

[8] = target: T5, human GPVI-1B extracellular domain fused at its C-terminus to human IgG1 Fc (GPVI-Fc) (human); test: ELISA, coated GPVI-Fc, Fab titrated
T5 construct: Low frequency haplotype 'b'; also called hGPVI-lb; hGPVI-1b
Description: as §2

[9] = target: T6, human GPVI-1A extracellular domain fused at its C-terminus to human IgG1 Fc (GPVI-Fc) (human); test: ELISA, coated GPVI-Fc, Fab titrated
T6 construct: also called hGPVI-1a; hGPVI
Description: as §2

[10] = target: T7, human GPVI-2A extracellular domain fused at its C-terminus to human IgG1 Fc (GPVI-Fc) (human); test: ELISA, coated GPVI-Fc, Fab titrated
T7 construct: Isoform 2, haplotype 'a'; also called hGPVI-2a
Description: as §2

Binder | IC50 [1] [nM] | Max. inhibition at 200 nM Fab [%] [1] [%] | EC50 (read off the curve) [2] [µg/mL] | IC50 [3] [nM] | Max. inhibition at 200 nM Fab [%] [3] [%] | IC50 [4] [nM] | Max. inhibition at 200 nM Fab [%] [4] [%] | EC50 [5] [nM] | EC50 [6] [nM] | EC50 [7] [nM] | EC50 [8] [nM] | EC50 [9] [nM] | EC50 [10] [nM] | binding result [6]
B1 | 12 | 99 | ~0.6 | 5.7 | 99 | 7.1 | 100 | 6.55 | 53.1 | 0.42 | 0.45 | 0.41 | 0.65 | 
B2 | 8.1 | 100 | ~0.6 | 5.3 | 99 | 7.6 | 99 | 1.36 | 9.65 | 0.37 | 0.39 | 0.35 | 0.48 | 
B3 | 10.6 | 67 | ~0.7 |  | 87 | 9.1 | 83 | 1 | 9.32 | 0.5 | 0.48 | 0.41 | 0.74 | 
B4 |  |  | ~0.5 |  |  | 8.8 | 99 |  |  | 0.58 | 1 | 0.93 | 1.43 | 
B5 | 26.4 | 77 | ~0.4 | 17.2 | 89 | 9.6 | 86 |  |  | 0.53 | 0.66 | 0.46 | 0.93 | binds
